# From patent publication US20240316157A1, “PHARMACEUTICAL COMPOSITION OF PCSK9 INHIBITOR AND GLP-1 RECEPTOR AGONIST” (Gan & Lee Pharmaceuticals Co., Ltd., priority 2021, published 2024)
# What was measured:
# wild-type hamsters [1] = experiment: Effect of the combination of Alirocumab and semaglutide on blood glucose in hamsters; assay type: in vivo, hamster; details: for Blood glucose (relative concentration): 7th day after dosing relative to baseline, s.c. once every two days, high-fat high-sugar feed, x±s; for Blood glucose decline rate E value: 7th day, versus control group, recorded as 0 if not significantly different from control
# Method: The experimental animals in this Example were wild-type hamsters, and the hamsters were grouped and administered according to the following standard: • 1) Control group: injection of excipient samples, subcutaneous injection (administration of […]), once every two days; • 2) Alirocumab group: injection of Alirocumab sample (Alirocumab 10 mg/kg), subcutaneous injection, once every two days; • 3) Semaglutide group: injection of semaglutide sample (semaglutide 0.12 mg/kg), subcutaneous injection, once every two days; • 4) Alirocumab+semaglutide group: injection of Alirocumab (Alirocumab 10 mg/kg) and semaglutide (semaglutide 0.12 mg/kg) by subcutaneous injection, the frequency of administration was once every two days.
# On the first day of the experiment, each group of wild-type hamsters was given high-fat and high-sugar feed (containing 10% lard, 10% cholesterol, and 60% fructose) and injected with drugs according to the above dosing regimen for each group, and blood was collected from the inner canthus vein of the hamster on the day before administrating and 7th day after dosing, plasma was anticoagulated with sodium heparin, and plasma was obtained by centrifugation of the whole blood at 4° C. for 10 min at 4000 rpm, and the blood glucose level was detected by glucose assay kit (Biosino Bio-Technology and Science Incorporation).
# The obtained blood glucose data were normalized according to the following method: taking the blood glucose of each group before the administration of the drug as the baseline, the relative concentration of the corresponding time point obtained by comparing the blood glucose at the monitoring point after the administration of the drug to the baseline glucose, the relative concentration of blood glucose was expressed as x±s, and the decline rate of the blood glucose of each administration group was calculated by using the analysis of variance using the GraphPad Prism software, in which x means the average value of data, and s denotes the standard deviation.
# Decline rate of blood glucose: E=[(relative blood glucose of […])/relative blood glucose of control group]×100%
# Note: If there is no significant difference between the relative blood glucose value of the administered group and the relative blood glucose of the control group, the value of E is recorded as 0.
# Calculation method of synergistic effect: the determination was made by using Zhengjun Jin's Q value, in which the Q value was obtained by the following formula: Q=Ea+b/(Ea+Eb−Ea×Eb); wherein Ea+b indicated the decline rate of detection indexes of the combination and mixed administration of the two drugs, and Ea, Eb indicated the decline rate of detection indexes of the two drugs used alone. If Q is between 0.85 and 1.15, it means that the two drugs have an additive effect; Q>1.15, the two drugs have a synergistic effect; Q<0.85, the two drugs have an antagonistic effect.
# [2] = test system: humanized mice overexpressing PCSK9 (B6-hPCSK9); experiment: Animal efficacy of Evolocumab in combination with Compound 5: body weight, fasting blood glucose, LDL-C; assay type: in vivo, mouse
# Text: In this example, humanized mice overexpressing PCSK9 (B6-hPCSK9) (males, 6 weeks old) were used, totaling 30 mice. These humanized mice were divided into six groups: K0-K5, with 5 mice per group. K0 served as the NC control group (fed a high-fat feed throughout the experiment), while K1-K5 were experimental groups. After a 1-week adaptation period with growth and breeding feed (Keao Xieli Feed), they were fed a high-fat diet for one month (Xietong Pharmaceutical Bio-engineering), and dosing was initiated after the high-fat diet feeding.
# The dosing for each experimental group was done via subcutaneous injection once in total, with the dose administrated calculated based on the dose of Evolocumab. […] If the dose was doubled (2×), the dose was doubled accordingly.
# Throughout the experiment, various indicators were monitored with the following frequencies: for weight monitoring, the weight was measured and recorded before dosing and then every other day after blood collection, this was performed a total of 3 times. […] Blood glucose levels were measured using a glucose assay kit (provided by Biosino Bio-Technology and Science Inc). […] LDL-C in the serum samples was measured using an LDL-C test kit (Nanjing Jiacheng Bioengineering Institute).
# [3] = test system: transgenic mice overexpressing human PCSK9; experiment: Effect of Evolocumab in combination with Compound 5 on blood lipid (LDL-C) in hyperlipidemic mice; assay type: in vivo, mouse; details: conclusion in words from Table 3
# Method: In this example, experimental animals were transgenic mice overexpressing human PCSK9 (4 weeks old). After being fed a high-fat diet for 37 days, their fasting lipid levels were measured.
# On the 5th day after dosing, the lipid levels of the mice were measured. The lipid measurement method was as follows: Blood was collected from the mice via the inner canthus vein, plasma was obtained by centrifuging whole blood at 4° C. and 4000 rpm for 10 minutes with sodium heparin as an anticoagulant. LDL-C levels were measured using an LDL-C assay kit (Nanjing Jiancheng Bioengineering Institute).
# The blood lipid data obtained were normalized using the following method: The blood lipid of each group before administration was taken as baseline, and the relative concentration of lipid at the corresponding time point obtained by comparing the blood lipid at the monitoring points after administration with that before administration. The relative concentration of blood lipid is represented as ‘x±s’, with ‘x’ representing the mean value of the data and ‘s’ representing the standard deviation. Variance analysis was conducted using GraphPad Prism software.
# wild-type hamsters [4] = experiment: Effect of the combination of Evolocumab and Compound 5 on blood glucose in hamsters; assay type: in vivo, hamster
# Method: The experimental animals in this Example were wild-type hamsters, and the hamsters were grouped and administered according to the following standard: • 1) Control group: subcutaneous injection of excipient samples, subcutaneous injection (administration of 2 μL/kg), once every two days; • 2) Evolocumab group: injection of Evolocumab samples (Evolocumab 30 mg/kg) by subcutaneous injection, once every two days; • 3) Compound 5 group: injection of compound 5 sample (compound 5: 0.12 mg/kg), using subcutaneous injection, once every two days; • 4) Evolocumab+Compound 5 group: injection of a pharmaceutical combinations containing Evolocumab and Compound 5 (Evolocumab 30 mg/kg, Compound 5: 0.12 mg/kg) by subcutaneous injection once every two days.
# On the first day of the experiment, each group of wild-type hamsters was given high-fat and high-sugar feed (containing 10% lard, 10% cholesterol, and 60% fructose) and injected with samples according to the dosing regimen described above for each group, and blood was collected from the inner canthus vein of the hamsters on the day before administration and 7th day after administration, and plasma was anticoagulated with heparin sodium, and plasma was obtained by centrifugation for 10 min at 4° C. at 4,000 rpm, and the blood glucose level was measured by glucose assay kit (Biosino Bio-Technology and Science Incorporation.) […]
# [5] = Reduced CE-SDS light and heavy chain ratio of Evolocumab (storage stability); assay type: physicochemical; details: 4° C., reference of one-month study of Suspension Formulation-2
# Text: The Acidic and Alkaline Peak ratio of Evolocumab monoclonal antibody in Suspension Formulation-2 falls within the quality standard range of originator product. (main peak≥51%, alkaline peak≤16%). • (4) The results of reduced CE-SDS testing for the light-heavy chain ratio of Evolocumab monoclonal antibody in Suspension Formulation-2 are presented in Table 22: […]
# [6] = CEX-HPLC acid-to-base peak ratio of Evolocumab (storage stability); assay type: physicochemical; details: 4° C., reference of one-month study of Suspension Formulation-2
molecule,measurement,setting,value
Alirocumab,Blood glucose (relative concentration),wild-type hamsters [1],0.71 ± 0.049
same,Blood glucose decline rate E value,wild-type hamsters [1],0%
same,hypoglycemic function,wild-type hamsters [1]; conclusion in words from Table 1,did not show a hypoglycemic function
Semaglutide,Blood glucose (relative concentration),wild-type hamsters [1],0.61 ± 0.062
same,Blood glucose decline rate E value,wild-type hamsters [1],14.1%
"Evolocumab (antibody, chains of the INN, looked up, V domains shown, PCSK9 antibody; source is Repatha®, commercially available from Amgen) VH: EVQLVQSGAEVKKPGASVKVSCKASGYTLTSYGISWVRQAPGQGLEWMGWVSFYNGNTNYAQKLQGRGTMTTDPSTSTAYMELRSLRSDDTAVYYCARGYGMDVWGQGTTVTVSS VL: ESALTQPASVSGSPGQSITISCTGTSSDVGGYNSVSWYQQHPGKAPKLMIYEVSNRPSGVSNRFSGSKSGNTASLTISGLQAEDEADYYCNSYTSTSMVFGGGTKLTVL",body weight,"[2]; single s.c. 1× dose (K2 530 ug/kg Compound 5; K3, K4 12.3 mg/kg Evolocumab), FIGS. 1-2",did not experience weight loss
same,LDL-C,"[2]; single s.c. 1× dose (K3, K4 12.3 mg/kg Evolocumab), FIG. 5",ability to lower LDL-C levels was consistent
same,lipid-lowering effect,[3],lipid-lowering effects
same,Blood glucose decline rate E value,"wild-type hamsters [4]; 7th day, versus control group, recorded as 0 if not significantly different from control",0%
same,hypoglycemic function,wild-type hamsters [4]; conclusion in words from Table 2,did not show a hypoglycemic function
"Laboratory-Purified Evolocumab: Commercially available Evolocumab (Repatha®) purified in the laboratory, 140 mg/ml (antibody, chains of the INN, looked up, V domains shown) VH: EVQLVQSGAEVKKPGASVKVSCKASGYTLTSYGISWVRQAPGQGLEWMGWVSFYNGNTNYAQKLQGRGTMTTDPSTSTAYMELRSLRSDDTAVYYCARGYGMDVWGQGTTVTVSS VL: ESALTQPASVSGSPGQSITISCTGTSSDVGGYNSVSWYQQHPGKAPKLMIYEVSNRPSGVSNRFSGSKSGNTASLTISGLQAEDEADYYCNSYTSTSMVFGGGTKLTVL",Pre-LC + LC + HC(%),[5],98.79%
same,Alkaline Peak (%),[6],10.569%
